From patent US20230140293A1

Key:
Test in all cases: cell-based or functional assay
[1] = molecular target: HIV-1 Env 426c.TM4 (S278R.G471S.N460D.N463D), Env-pseudotyped virus produced in 293S GnTI- cells (Man5-enriched) (HIV-1 clade C strain 426c)
[2] = molecular target: CH0505TF Env, Env-pseudotyped virus produced in 293S GnTI- cells (Man5-enriched) (HIV-1)
[3] = molecular target: HIV-1 Env 426c.TM (N276D.N460D.N463D), Env-pseudotyped virus produced in 293T cells (HIV-1 clade C strain 426c)
[4] = molecular target: HIV-1 Env 426c.DM (N460D.N463D), Env-pseudotyped virus produced in 293T cells (HIV-1 clade C strain 426c)
[5] = molecular target: CH0505.w4.3 Env, Env-pseudotyped virus produced in 293T cells (HIV-1)
[6] = molecular target: CH0505TF.gly3.276 Env, Env-pseudotyped virus produced in 293T cells (HIV-1)
[7] = molecular target: HIV-1 426c.TM (N276D/N460D/N463D) Env on Env-pseudotyped virus produced in 293s/GnTI-/- cells (Man5-enrichment) (HIV-1)
[8] = molecular target: CH0505TF.gly3.276 Env, Env-pseudotyped virus produced in 293S GnTI- cells (Man5-enriched) (HIV-1)
[9] = molecular target: CH0505TF.gly3.197 Env, Env-pseudotyped virus produced in 293S GnTI- cells (Man5-enriched) (HIV-1)
[10] = molecular target: HIV-1 Env 426c.TM4 (S278R.G471S.N460D.N463D), Env-pseudotyped virus produced in 293T cells (HIV-1 clade C strain 426c)
[11] = molecular target: CH0505TF.G458Y Env, Env-pseudotyped virus produced in 293S GnTI- cells (Man5-enriched) (HIV-1)
[12] = molecular target: HIV-1 clade C strain 426c Env on Env-pseudotyped virus produced in 293s/GnTI-/- cells (Man5-enrichment) (HIV-1)
[13] = molecular target: HIV-1 Env 426c.SM (N276D), Env-pseudotyped virus produced in 293T cells (HIV-1 clade C strain 426c)
[14] = molecular target: HIV-1 426c.SM (N276D) Env on Env-pseudotyped virus produced in 293s/GnTI-/- cells (Man5-enrichment) (HIV-1)
[15] = molecular target: HIV-1 426c.TM (N276D/N460D/N463D) Env on Env-pseudotyped virus produced in 293T cells (HIV-1)
[16] = molecular target: CH0505TF.gly3.461 Env, Env-pseudotyped virus produced in 293T cells (HIV-1)
[17] = molecular target: CH0505TF.gly3.197 Env, Env-pseudotyped virus produced in 293T cells (HIV-1)
[18] = molecular target: CH0505TF.gly4 Env, Env-pseudotyped virus produced in 293T cells (HIV-1)
[19] = molecular target: HIV-1 426c.DM (N460D/N463D) Env on Env-pseudotyped virus produced in 293T cells (HIV-1)
[20] = molecular target: HIV-1 426c.DM (N460D/N463D) Env on Env-pseudotyped virus produced in 293s/GnTI-/- cells (Man5-enrichment) (HIV-1)
[21] = molecular target: HIV-1 Env 426c.DM (N460D.N463D), Env-pseudotyped virus produced in 293S GnTI- cells (Man5-enriched) (HIV-1 clade C strain 426c)
[22] = molecular target: HIV-1 Env 426c.SM (N276D), Env-pseudotyped virus produced in 293S GnTI- cells (Man5-enriched) (HIV-1 clade C strain 426c)
[23] = molecular target: CH0505TF.gly4 Env, Env-pseudotyped virus produced in 293S GnTI- cells (Man5-enriched) (HIV-1)
[24] = molecular target: CH0505TF.gly3.461 Env, Env-pseudotyped virus produced in 293S GnTI- cells (Man5-enriched) (HIV-1)
[25] = molecular target: HIV-1 Env 426c.TM (N276D.N460D.N463D), Env-pseudotyped virus produced in 293S GnTI- cells (Man5-enriched) (HIV-1 clade C strain 426c)
[26] = molecular target: CH0505TF.G458Y Env, Env-pseudotyped virus produced in 293T cells (HIV-1)
[27] = molecular target: HIV-1 Env 426c, Env-pseudotyped virus produced in 293S GnTI- cells (Man5-enriched) (HIV-1 clade C strain 426c)
[28] = molecular target: HIV-1 426c.SM (N276D) Env on Env-pseudotyped virus produced in 293T cells (HIV-1)
[29] = molecular target: HIV-1 Env 426c, Env-pseudotyped virus produced in 293T cells (HIV-1 clade C strain 426c)
[30] = molecular target: CH0505TF Env, Env-pseudotyped virus produced in 293T cells (HIV-1)
[31] = molecular target: HIV-1 clade C strain 426c Env on Env-pseudotyped virus produced in 293T cells (HIV-1)

HJ16 (antibody)
> 25 µg/mL: IC50 (µg/ml) in TZM-bl [1] | IC50 (µg/ml) in TZM-bl [2] | IC50 (µg/ml) in TZM-bl [3] | IC50 (µg/ml) in TZM-bl [4] | IC50 (µg/ml) in TZM-bl [5] | IC50 (µg/ml) in TZM-bl [6] | ID50/IC50 in TZM-bl [7] | IC50 (µg/ml) in TZM-bl [8] | IC50 (µg/ml) in TZM-bl [9] | IC50 (µg/ml) in TZM-bl [10] | IC50 (µg/ml) in TZM-bl [11] | ID50/IC50 in TZM-bl [12] | IC50 (µg/ml) in TZM-bl [13] | ID50/IC50 in TZM-bl [14] | ID50/IC50 in TZM-bl [15] | IC50 (µg/ml) in TZM-bl [16] | IC50 (µg/ml) in TZM-bl [17] | IC50 (µg/ml) in TZM-bl [18] | ID50/IC50 in TZM-bl [19] | ID50/IC50 in TZM-bl [20] | IC50 (µg/ml) in TZM-bl [21] | IC50 (µg/ml) in TZM-bl [22] | IC50 (µg/ml) in TZM-bl [23] | IC50 (µg/ml) in TZM-bl [24] | IC50 (µg/ml) in TZM-bl [25] | IC50 (µg/ml) in TZM-bl [26] | IC50 (µg/ml) in TZM-bl [27] | ID50/IC50 in TZM-bl [28] | IC50 (µg/ml) in TZM-bl [29] | IC50 (µg/ml) in TZM-bl [30] | ID50/IC50 in TZM-bl [31]

PG9 (antibody)
0.24 µg/mL: IC50 (µg/ml) in TZM-bl [17]
0.1 µg/mL: IC50 (µg/ml) in TZM-bl [26]
0.11 µg/mL: IC50 (µg/ml) in TZM-bl [2]
0.21 µg/mL: IC50 (µg/ml) in TZM-bl [18]
0.17 µg/mL: IC50 (µg/ml) in TZM-bl [6]
0.06 µg/mL: IC50 (µg/ml) in TZM-bl [9]
0.04 µg/mL: IC50 (µg/ml) in TZM-bl [8] | IC50 (µg/ml) in TZM-bl [11]
> 5 µg/mL: IC50 (µg/ml) in TZM-bl [1] | IC50 (µg/ml) in TZM-bl [3] | IC50 (µg/ml) in TZM-bl [4] | ID50/IC50 in TZM-bl [7] | IC50 (µg/ml) in TZM-bl [10] | ID50/IC50 in TZM-bl [12] | IC50 (µg/ml) in TZM-bl [13] | ID50/IC50 in TZM-bl [14] | ID50/IC50 in TZM-bl [15] | ID50/IC50 in TZM-bl [19] | ID50/IC50 in TZM-bl [20] | IC50 (µg/ml) in TZM-bl [21] | IC50 (µg/ml) in TZM-bl [22] | IC50 (µg/ml) in TZM-bl [25] | IC50 (µg/ml) in TZM-bl [27] | ID50/IC50 in TZM-bl [28] | IC50 (µg/ml) in TZM-bl [29] | ID50/IC50 in TZM-bl [31]
0.22 µg/mL: IC50 (µg/ml) in TZM-bl [16]
1.8 µg/mL: IC50 (µg/ml) in TZM-bl [5]
0.02 µg/mL: IC50 (µg/ml) in TZM-bl [23]
0.05 µg/mL: IC50 (µg/ml) in TZM-bl [24]
0.19 µg/mL: IC50 (µg/ml) in TZM-bl [30]

PG16 (antibody)
0.09 µg/mL: IC50 (µg/ml) in TZM-bl [30]
0.03 µg/mL: IC50 (µg/ml) in TZM-bl [5] | IC50 (µg/ml) in TZM-bl [9] | IC50 (µg/ml) in TZM-bl [26]
0.05 µg/mL: IC50 (µg/ml) in TZM-bl [17]
> 5 µg/mL: IC50 (µg/ml) in TZM-bl [1] | IC50 (µg/ml) in TZM-bl [3] | IC50 (µg/ml) in TZM-bl [4] | ID50/IC50 in TZM-bl [7] | IC50 (µg/ml) in TZM-bl [10] | ID50/IC50 in TZM-bl [12] | IC50 (µg/ml) in TZM-bl [13] | ID50/IC50 in TZM-bl [14] | ID50/IC50 in TZM-bl [15] | ID50/IC50 in TZM-bl [19] | ID50/IC50 in TZM-bl [20] | IC50 (µg/ml) in TZM-bl [21] | IC50 (µg/ml) in TZM-bl [22] | IC50 (µg/ml) in TZM-bl [25] | IC50 (µg/ml) in TZM-bl [27] | ID50/IC50 in TZM-bl [28] | IC50 (µg/ml) in TZM-bl [29] | ID50/IC50 in TZM-bl [31]
0.01 µg/mL: IC50 (µg/ml) in TZM-bl [11]
0.1 µg/mL: IC50 (µg/ml) in TZM-bl [6] | IC50 (µg/ml) in TZM-bl [16] | IC50 (µg/ml) in TZM-bl [18]
0.02 µg/mL: IC50 (µg/ml) in TZM-bl [8] | IC50 (µg/ml) in TZM-bl [23] | IC50 (µg/ml) in TZM-bl [24]
0.08 µg/mL: IC50 (µg/ml) in TZM-bl [2]
